Test results published in article PMC7005713, “Revisiting the pH-gated conformational switch on the activities of HisKA-family histidine kinases” (Nature Communications, 2020).
Blank lines part the entries; values can stand above or below the binder they belong to.

B3: HK853, complete cytoplasmic portion (DHp and CA domains), wild type (domain or fragment, Thermotoga maritima)
chain: VENVTESKELERLKRIDRMKTEFIANISHELRTPLTAIKAYAETIYNSLGELDLSTLKEFLEVIIDQSNHLENLLNELLDFSRLERKSLQINREKVDLCDLVESAVNAIKEFASSHNVNVLFESNVPCPVEAYIDPTRIRQVLLNLLNNGVKYSKKDAPDKYVKVILDEKDGGVLIIVEDNGIGIPDHAKDRIFEQFYRVDSSLTYEVPGTGLGLAITKEIVELHGGRIWVESEVGKGSRFFVWIPKDRAGEDNRQDN
notes: Sensor histidine kinase HK853 of Thermotoga maritima, complete cytoplasmic (catalytic) portion with DHp and CA domains; source: E. coli BL21-CodonPlus(DE3)-RIL, purified (70 °C heat step, HisTrap HP, TEV digestion, Superdex 200)
B4: HK853 H260A, complete cytoplasmic portion (domain or fragment, Thermotoga maritima)
chain: VENVTESKELERLKRIDRMKTEFIANISAELRTPLTAIKAYAETIYNSLGELDLSTLKEFLEVIIDQSNHLENLLNELLDFSRLERKSLQINREKVDLCDLVESAVNAIKEFASSHNVNVLFESNVPCPVEAYIDPTRIRQVLLNLLNNGVKYSKKDAPDKYVKVILDEKDGGVLIIVEDNGIGIPDHAKDRIFEQFYRVDSSLTYEVPGTGLGLAITKEIVELHGGRIWVESEVGKGSRFFVWIPKDRAGEDNRQDN
notes: ADP was added for crystallisation; Same limits as m1; source: E. coli BL21-CodonPlus(DE3)-RIL, purified (70 °C heat step, HisTrap HP, TEV digestion, Superdex 200)

Assays:
[1] = target: B3; assay: crystal structure; HK853 (10 mg/ml) and RR468 (7.5 mg/ml) with 4 mM ADP, 30 mM NaF, 5 mM BeSO4, 7 mM MgCl2; sitting drops at 21 °C; 1.8 M (NH4)2SO4, 0.1 M sodium citrate; four structures at pH 5.5, 6.5, 7 and 7.5; settings: both partners purified
[2] = target: B3; assay: crystal structure; HK853 wild type and RR468 D53A with 4 mM ADP; sitting drops at 21 °C; pH 7: 1.8 M (NH4)2SO4, 100 mM sodium citrate; pH 5.3: 1.2 M (NH4)2SO4, 100 mM Bis-Tris; two structures; settings: both partners purified
[3] = target: B4; assay: crystal structure; HK853 H260A and RR468 D53A with 4 mM ADP; sitting drops at 21 °C; pH 7.5: 1.8 M (NH4)2SO4, 100 mM sodium citrate; pH 5.3: 1.2 M (NH4)2SO4, 100 mM Bis-Tris; two structures; settings: both partners purified
[4] = target: the molecule itself; assay: crystal structure; HK853 (10 mg/ml) and RR468 (7.5 mg/ml) with 4 mM ADP, 30 mM NaF, 5 mM BeSO4, 7 mM MgCl2; sitting drops at 21 °C; 1.8 M (NH4)2SO4, 0.1 M sodium citrate; four structures at pH 5.5, 6.5, 7 and 7.5
[5] = target: the molecule itself; assay: crystal structure; HK853 H260A and RR468 D53A with 4 mM ADP; sitting drops at 21 °C; pH 7.5: 1.8 M (NH4)2SO4, 100 mM sodium citrate; pH 5.3: 1.2 M (NH4)2SO4, 100 mM Bis-Tris; two structures

- binding result [1]: binds
B1: RR468 wild type, bound to the phosphomimetic BeF3- (natural protein, Thermotoga maritima)
chain: MSKKVLLVDDSAVLRKIVSFNLKKEGYEVIEAENGQIALEKLSEFTPDLIVLDIMMPVMDGFTVLKKLQEKEEWKRIPVIVLTAKGGEEDESLALSLGARKVMRKPFSPSQFIEEVKHLLNE
modifications: phosphomimetic BeF3- bound to the phosphoacceptor D53
notes: Response regulator RR468 of Thermotoga maritima; BeF3- was formed in the crystallisation mixture from 30 mM NaF, 5 mM BeSO4 and 7 mM MgCl2; source: E. coli BL21-CodonPlus(DE3)-RIL, purified (70 °C heat step, HisTrap HP, TEV digestion, Superdex 75)

- binding result [2]: binds
- binding result [3]: binds
B2: RR468 D53A (natural protein, Thermotoga maritima)
chain: MSKKVLLVDDSAVLRKIVSFNLKKEGYEVIEAENGQIALEKLSEFTPDLIVLAIMMPVMDGFTVLKKLQEKEEWKRIPVIVLTAKGGEEDESLALSLGARKVMRKPFSPSQFIEEVKHLLNE
notes: Response regulator RR468 of Thermotoga maritima cloned in pET22b, with the phosphoacceptor Asp53 changed to Ala; lacks a Histag; source: E. coli BL21-CodonPlus(DE3)-RIL, purified (70 °C heat step, Mono Q, Superdex 75)

Binder: B3
- binding result [4]: binds

Binder: B4
- binding result [5]: binds
